# Measurements reported in patent publication US20210395344A1 (TWIST BIOSCIENCE, published 2021).
# B1: SARS-CoV-2 variant 1-38 (antibody, V domains shown)
# VH: EVQLLESGGGLVQPGGSLRLSCAASGITFSSYAMSWVRQAPGKGLEWVSGISGSGGSTYYADSVKGRFTISRDNSKNTLYLQMNSLRAEDTAVYYCAKHGSGTIFGVVIAKYYFDYWGQGTLVTVSS
# VL: QSALTQPASVSGSPGQSITISCTGTSSDIGSYNLVSWYQQHPGKAPKLMIYEGTKRPSGVSNRFSGSKSGNTASLTISGLQAEDEADYYCCSYAGSRTYVFGGGTKLTVL
# B2: SARS-CoV-2 variant 1-37 (antibody, V domains shown)
# VH: EVQLLESGGGLVQPGGSLRLSCAASGFTFTSYAMNWVRQAPGKGLEWVTAISGSGGSTFYADSVKGRFTISRDNSKNTLYLQMNSLRAEDTAVYYCTRPPYGDYGDYWGQGTLVTVSS
# VL: B1 VL
# B3: SARS-CoV-2 variant 1-26 (antibody, V domains shown)
# VH: EVQLLESGGGLVQPGGSLRLSCAASGFTFSSYAISWVRQAPGKGLEWVSAISGSGYSTYYADSVKGRFTISRDNSKNTLYLQMNSLRAEDTAVYYCARGAPDSSGYYFQGEVYFDYWGQGTLVTVSS
# VL: QSALTQPASVSGSPGQSITISCTGTSSDVGGYNLVSWYQQHPGKAPKLMIYEGTKRPSGVSNRFSGSKSGNTASLTISGLQAEDEADYYCCSFVRSSAHVVFGGGTKLTVL
# B4: SARS-CoV-2 variant 2-15 (antibody, V domains shown)
# VH: EVQLLESGGGLVQPGGSLRLSCAASGFTFSDFAMAWVRQAPGKGLEWVSAISGSGDITYYADSVKGRFTISRDNSKNTLYLQMNSLRAEDTAVYYCAREADGLHSPWHFDLWGQGTLVTVSS
# VL: DIQMTQSPSSLSASVGDRVTITCRASQSIDNYLNWYQQKPGKAPKLLIYGVSALQSGVPSRFSGSGSGTDFTLTISSLQPEDFATYYCQQSHSAPLTFGQGTKVEIK
# Key:
# Assay in all cases: phage ELISA
# [1] = biological target: S1-Fc (SARS-CoV-2, UniProt P0DTC2 16-685)
# [2] = biological target: T1, SARS-CoV-2 S1 (subunit 1) protein (SARS-CoV-2, UniProt P0DTC2 16-685)
# T1 construct: also called biotinylated SARS-CoV-2 S1
# [3] = biological target: T2, COVID S1 RBD Fc fusion (Antigen 1) (SARS-CoV-2, UniProt P0DTC2 319-541)
# T2 construct: domain: RBD
# [4] = biological target: T3, COVID S1 RBM Fc fusion (Antigen 2) (SARS-CoV-2, UniProt P0DTC2 437-508)
# T3 construct: domain: RBM
# [5] = biological target: COVID S1 RBD Fc fusion (Antigen 1) (SARS-CoV-2, UniProt P0DTC2 319-541)
# [6] = biological target: COVID S1 RBM Fc fusion (Antigen 2) (SARS-CoV-2, UniProt P0DTC2 437-508)
Binder,"specificity ELISA, fold over background [1]","specificity ELISA, percent binding relative to Acro S1 [1]","screening ELISA (Avg), fold over background [2]","specificity ELISA, fold over background [3]","specificity ELISA, percent binding relative to Acro S1 [3]","specificity ELISA, fold over background [4]","specificity ELISA, percent binding relative to Acro S1 [4]","specificity ELISA, fold over background [5]","specificity ELISA, percent binding relative to Acro S1 [5]","specificity ELISA, fold over background [6]","specificity ELISA, percent binding relative to Acro S1 [6]"
B1,0.9 fold over background,82.8%,20.2 fold over background,1.5 fold over background,128%,1.2 fold over background,101%,,,,
B2,5.4 fold over background,46.7%,27 fold over background,2 fold over background,17.7%,1.4 fold over background,12.3%,,,,
B3,1.3 fold over background,98%,19.5 fold over background,1.1 fold over background,76.8%,1 fold over background,74.7%,,,,
B4,,,,,,,,28.1 fold over background,90.6%,0.9 fold over background,3%
